# Test results from patent publication US20260217797A1 (Takeda / Millennium, published 2026).
# Numbering of substitutions follows the chain as printed.
# B1: A-20 (antibody, V domains shown)
# VH: QVQLVESGGGVVQPGRSLRLSCAASGFTFSNFAMHWVRQAPGKGLEWVAVILYDGINKYYADSVKGRFTISRGNSKNTLSLQMNSLRAEDTAVYYCARAQNYYDRSGTLQLDAFDIWGQGTLVTVSS
# VL: AIQMTQSPSSLSASVGDRVTITCRASQGIRNDLGWYQQKPGKAPKLLIYAASSLQSGVPSRFSGSGSGTDFTLTISSLQPEDFATYYCLQDYNYPLTFGGGTKVEIK
# B2: A-20.1 (antibody, V domains shown)
# VH: B1 VH
# VL: B1 VL with R24V, A50E, Q55E
# B3: A-7 (antibody, V domains shown)
# VH: EVQLVESGAEVRKPGASVKVSCKASGYTFTFYYIHWVRQAPGQGLEWMGWISPISGATNYAQTFQGRVTMTRDTSITTAYMELSSLTSDDTAVYYCAREKYYDSSGSSDYWGQGTLVTVSS
# VL: QPVLTQPPSVSAAPGQNVTIFCSGSSSNIGNNYVSWYQQLPGPAPKLLIYENNKRPSGIPDRFSGSKSGTSATLGITGLQTGDEADYYCGTWESSLSAPRVFGSGTKLTVL
# B4: A-19 (antibody, V domains shown)
# VH: QVQLVQSGAEVKKPGESLKISCKGSGYSFTSYWIAWVRQMPGKGLEWMGIIYPGDSDTSYSPSFQGQVTISADKSISTAYLQWSSLKASDTAMYYCARGPNKYNWFDTWGQGTLVTVSS
# VL: not shown
# B5: A-10 (antibody, V domains shown)
# VH: QVQLVQSGGGVVQPGRSLRLSCAASGFTFSSYGMHWVRQAPGKGLEWVAVISYDGSNKYYTDSVKGRFTISRDNSKNTLYLQMNSLRAEDTAVYYCAKDLPREVYYDILTGYDNPYYYYGMDVWGQGTTVTVSS
# VL: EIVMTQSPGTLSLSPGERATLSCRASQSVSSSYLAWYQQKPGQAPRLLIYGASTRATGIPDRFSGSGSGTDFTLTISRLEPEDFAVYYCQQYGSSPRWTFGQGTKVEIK
# B6: A-13 (antibody, V domains shown)
# VH: QVQLVQSGAEVKKPGASVKVSCKASGYTFTDYYMHWVRQAPGQGLEWMGWINPNSGGTNSAQKFQGRVTMTRDTSINTAYMELSRLRSDDTAVYFCARDSHLAMVRGDFEYWGQGTLVTVSS
# VL: QSVLTQPASVSGSPGQSITISCTGTSSDVESYNVVSWYQQHPGKAPKLMIYEVSKRPSGVSHRFSGSKSGNTASLTISGLQAEDESDYYCCSYAGNSTWVFGGGTKLTVL
# B7: A-8 (antibody, V domains shown)
# VH: EVQLLESGGGLVQPGGSLRLSCAASGFTFSSYAMSWVRQAPGKGLEWVSAISGSGNSTSYADSVKGRFTLSRDNSKNTLYLQMNSLRAEDTAIYYCAKGLGTRSFNWGAFDYWGQGTLVTVSS
# VL: DIRVTQSPSSLSASVGDRVTITCRASQGISYSLAWYQQKPGKAPKLLLYAASNLESGVPSRFSGSGSGTDYTLTVSSLQPEDFATYYCQQYYSTPWTFGQGTKVEIK
# B8: A-2 (antibody, V domains shown)
# VH: EVQLVESGGGLIQPGGSLRLSCAASGFTVSSNYMSWVRQAPGKGLEWVSIIYSGGSTYYADSVKGRFTISRDNSKNTLYLQMNSLRAEDTAVYYCARAPSGEYGDPIYYWGQGTLVTVSS
# VL: QSVLTQPPSASASLGASVKLTCTLSSGHSTYTIAWHQQQPEKGPRYLMKLNSDGSHSKGDGIPDRFSGSSSGAERYLTISSLQSEDEADYYCQTWGTGNHWVFGGGTKLTVL
# B9: A-15 (antibody, V domains shown)
# VH: QVQLVQSGAEVKKPGASVKVSCKASGYTSSSYYMHWVRQAPGQGPEWMGIINPGGTSTSYAQKFQGRVTMTRDTSTSTVYMELSSLRSEDTAVYYCAIGYCSTTSCRWGDAFDIWGQGTMVTVSS
# VL: DIQVTQSPSSLSASVGDRVTITCRASQSISSYLNWYQQKPEKAPNLLIYAASSLQSGVPSRFSGSGSGTDFTLTISSLQPEDFATYYCQQSSTTPPTFGQGTKVEIK
# B10: A-11 (antibody, V domains shown)
# VH: EVQLVESGAEVKKPGSSVMVSCKASGGTFSRYAISWVRQAPGQGLEWMGGIIPVFGIVHYAQKFQGRVTITADKSTSTAYMELSSLRSEDTAAYYCARDRQQQPSPYYYHGMDVWGQGTTVTVSS
# VL: DIRLTQSPSSLSASVGDRVTITCQASQDISNYLNWYQQKPGKAPKLLIYDASNLETGVPTRFSGSGSGTDFTFTISSLQPEDIATYYCQQYDNLPLFGGGTKVEIK
# B11: A-1 (antibody, V domains shown)
# VH: EVQLVESGGGVVQPGGSLRLSCAASGFAFSTYWMHWVRQAPGKGLVWVSRINGDGSGTNYADSVKGRFTISRDNAKSTLYLQMNSLRTEDTAVYYCTRTAGRGAYDFGRFDPWGQGTLVTVSS
# VL: DIVLTQTPLSLPVTPGEPASISCRSSQSLLHSNGYNYLDWYLQKAGQSPQLLVFLGSNRASGVPDRFSGSASGTDFTLKISRVEAEDVGVYYCMQALQIPITFGQGTRLEIK
# B12: A-23 (antibody, V domains shown)
# VH: EVQLVESGGGLVQPGRSLRLSCAASGFTFDDYAMHWVRQAPGKGLEWVSGISWNSGTIGYADSVKGRFIISRDNAKNSLYLQMNSLRGEDMALYYCGKDRKREDPSLGGMDVWGQGTTVTVSS
# VL: SYVLTQPPSVSVAPGQTARITCGGNNIGSKSVHWYQQKPGQAPVLVVYDDTDRPSGIPERFSGSNSGNTATLTISRVEAGDEADYYCQVWDSSSDHYVFGTGTKVTVL
# B13: A-23.3 (antibody, V domains shown)
# VH: B12 VH with I51T, G97V
# VL: B12 VL with H96D
# B14: A-16 (antibody, V domains shown)
# VH: B12 VH with E1Q
# VL: B12 VL with V3E, V105L
# B15: A-23.2 (antibody, V domains shown)
# VH: B12 VH with I51T, G97V
# VL: B12 VL with S92V, H96S
# B16: A-23.1 (antibody, V domains shown)
# VH: B12 VH with F29I, S55G
# VL: B12 VL with G23L, S93E
# B17: A-3 (antibody, V domains shown)
# VH: EVQLLESGPGLVKPSETLSLTCTVSGGSINSRSYYWGWIRQPPGKGLEWIGSIYYSGSTYYNPSLKSRVTISVDTSKNQFSLKLSSVIAADTAVYFCARLEQWELPGGWFDPWGQGTLVTVSS
# VL: NFMLTQPHSVSESPGKTVTISCTRSSGSIASNYVQWYQQRPGSAPTTVIYEDNQRPSGVPDRFSGSIDISSNSASLTISGLKTEDEADYSCQSSDSSNVVFGGGTKLTVL
# B18: A-4 (antibody, V domains shown)
# VH: EVQLVESGGGLIQPGGSLTLSCAASGFTVSSNYMNWVRQAPGKGLEWVSVIYSGGSTYYADSVKGRFTISRDNSKNTLYLQMNSLRAEDTAVYYCAREVYSYFDYWGQGTLVTVSS
# VL: DIQLTQSPSFLSASVGDRVTITCRASQGISSYLAWYQQKPGKAPKLLIYAASTLQSGVPSRFSGSGSGTEFTLTISRLQPEDLATYYCQQLNSYPPHTFGQGAKLEIK
# B19: A-14 (antibody, V domains shown)
# VH: EVQLVESGGGVVQPGRSLRLSCAASGFTFSTYGMHWVRQAPGKGLEWVAVIWYDGSNKYYADSVKGRFTISRDNSKNTLYLQMNSLRAEDTAVYYCARSVDGDYLEYFQHWGQGTLVTVSS
# VL: QPVLTQPRSVSGSPGQSVTISCTGTSSDVGGYNYVSWYQQHPGKAPKLMIYDVSKRPSGVPDRFSGSKSGNTASLTISGLQAEDEADYYCCSYAGGYTNYVFGTGTKLTVL
# B20: A-5 (antibody, V domains shown)
# VH: QVQLVESGGGLIQPGESLRLSCAASEFIVSRNYMSWVRQAPGKGLEWVSVIYSGGNTYYADSVKGRFTISRDNSKNTLYLQMNSLRAEDTAVYYCARDLRGPGCFDFWGQGTTVTVSS
# VL: DIQVTQSPSSLSASVGDRVTITCQASQDISNFLNWYQQKPGKAPKLLIYDASNLETGVPSRFSASGSGTEFTFTISSLQPEDIATYYCQQYDNLRVTFGGGTKLEIK
# B21: A-12 (antibody, V domains shown)
# VH: EVQLLESGGGLVQPGGSLRLSCAVSGLTVSSNYMSWVRQAPGKGLEWVSLIYSGGSTYYADSVKGRFTISRDNSKNTLYLQMNSLRAEDTAVYYCARGELGIPYGMDVWGQGTTVTVSS
# VL: QSVLTQPPSVSAAPGQKVTISCSGGSSNVGDNFVSWYQQLPGTAPKLLIYDNNRRPSGIPDRFSGSKSGTSATLGITGLQTGDEADYYCGTWDSSLSAGVFGGGTKVTVL
# Legend:
# [1] = target: SARS-CoV-2 Variant B.1.17 N501Y S1-His (SARS-CoV-2, UniProt P0DTC2 16-685); test: Octet BLI, IgG, monovalent
# SARS-CoV-2 RBD-mFc = SARS-CoV-2 RBD-mFc (SARS-CoV-2, UniProt P0DTC2 319-541); test: Octet BLI, IgG, avid
# [2] = target: SARS-CoV-2 Omicron (B.1.529) spike protein (on reporter virus particles) (SARS-CoV-2, UniProt P0DTC2 14-1273); test: cell-based or functional assay
# [3] = target: SARS-CoV-2 Alpha (B.1.1.7) spike protein (on reporter virus particles) (SARS-CoV-2, UniProt P0DTC2 14-1273); test: cell-based or functional assay
# [4] = target: SARS-CoV-2 Beta (B.1.351) spike protein (on reporter virus particles) (SARS-CoV-2, UniProt P0DTC2 14-1273); test: cell-based or functional assay
# [5] = target: SARS-CoV-2 P.1 Spike (Gamma) (SARS-CoV-2, UniProt P0DTC2 16-1213); test: Octet BLI single point, monovalent
# [6] = target: SARS-CoV-2 B.1.1.7 N501Y (Alpha) RBD (SARS-CoV-2, UniProt P0DTC2 319-541); test: Octet BLI single point, monovalent
# [7] = target: SARS-CoV-2 B.1.351 (Beta) RBD (SARS-CoV-2, UniProt P0DTC2 319-541); test: Octet BLI single point, monovalent
Binder,Kd (SARS-CoV-2 RBD-mFc) [nM],also measured
B1,,Kd [1]: 2.57 nM
B2,,Kd [1]: 0.604 nM
B3,0.0941,
B4,0.129,
B5,0.0931,
B6,0.0959,
B7,0.106,
B8,0.125,
B9,0.212,
B10,0.173,
B11,0.089,
B12,,Kd [1]: 1.2 nM
B13,,Kd [1]: 0.286 nM
B14,0.081,"PsV IC50, Test 1 [2]: 0.19 nM; PsV neutralization IC50 [3]: 0.025 µg/mL; PsV neutralization IC90 [3]: 0.329 µg/mL; PsV neutralization IC50 [4]: 0.103 µg/mL; PsV neutralization IC90 [4]: 0.905 µg/mL; Kd [5]: 4.83 nM; Kd [6]: 4.62 nM; Kd [7]: 6.05 nM"
B15,,Kd [1]: 0.242 nM
B16,,Kd [1]: 0.512 nM
B17,0.141,
B18,0.663,
B19,0.158,
B20,0.179,
B21,0.151,
